Tested on: BMDM
Assay: qRT-PCR of BMDM (palmitate, cytokines, adipocyte conditioned media)
Assay type: cell-based, mouse
Conditions: direct addition of cytokine
Description: Real-time Quantitative RT-PCR Analysis RNA (0.5-1 μg) was reverse transcribed using iScript™ cDNA Synthesis Kit (Biorad) and RT-PCR analysis was conducted using kapa SYBR green Supermix (kappa syber) and a Mastercycler Realplex (Eppendorf) the primers used are listed. Fold change in mRNA expression was calculated using the comparative cycle method (ΔΔCt).
Cell culture. Primary bone marrow derived macrophage (BMDM) was prepared by flushing the bone marrow of the tibia and femur of 6-8 week old C57/B6 mice. The cells were grown in DMEM supplemented with 15% L929-conditioned media, 10% FBS and 1% penicillin/streptomycin for 7 days. BMDM were stimulated 250 pM palmitate conjugated with BSA or BSA as a control for 24 hours, or TNFα (10 ng/ml, 410-MT-010; R&D systems), IL-6 (40 nglml, 406-ML-005; R&D systems) and IL-4 (1 Onglml, 404-ML-010; R&D systems) for 24 h. In some assays, differentiated BMDM were treated with conditioned media from 3T3-L1 adipocytes differentiated as described (Lin, et al., J Biol Chem, 2005; 280:4617-4626) and treated with 250 pM palmitate conjugated with BSA or BSA for 24 hours. In certain experiments, anti-TNFα (0.4 μg/ml, AF-410-NA, R&D systems) or anti-IL-6 (0.025 μg/ml, MAB406; R&D systems) blocking antibody or IgG control (Normal Goat IgG: AB-108-C, Rat IgG1: MAB005; R&D systems) was added to conditioned media. […]

B1: IL-6: cytokine, 406-ML-005 R&D systems (protein, UniProt P08505 25-211, looked up)
Interleukin-6: FPTSQVRRGDFTEDTTPNRPVYTTSQVGGLITHVLWEIVEMRKELCNGNSDCMNNDDALAENNLKLPEIQRNDGCYQTGYNQEICLLKISSGLLEYHSYLEYMKNNLKDNKKDKARVLQRDTETLIHIFNQEVKDLHKIVLPTPISNALLTDKLESQKEWLRTKTIQFILKSLEEFLKVTLRSTRQT
- Ntn1 mRNA in BMDMs: increased Ntn1 mRNA

From patent US20210113687A1, “METHODS FOR TREATING INFLAMMATION” (NEW YORK UNIVERSITY, priority 2013, published 2021)
